The record followed here is patent publication US20250361274A1, “PEPTIDE AND PEPTIDE-CONTAINING AGENT” (PEPTIDREAM INC., priority 2022, published 2025).

As usually defined, the Kd is the constant that tells how readily two partners part at equilibrium. Low values mean tighter binding, high ones weaker binding.

Where two headings read alike, the source gives them in different places. Numbered stars: 1 amine (or outer) side, 2 acyl side, 3 side chain; on linkers, the order of the positions; unused ones are H or OH. Bridge positions count the residues as written; N and C are the ends. Square brackets hold non-standard residues; d marks the D form. Ends that are not written are not given here. KCOpipzaa = N6-(4-(carboxymethyl)piperazine-1-carbonyl)-L-lysine, O=C(NCCCC[C@H](N[*:1])C(=O)[*:2])N1CCN(CC(=O)[*:3])CC1; 3Pal(6-Ph) = N[C@@H](Cc1ccc(-c2ccccc2)nc1)C(=O)O; Phe(4-COOH) = N[C@@H](Cc1ccc(C(=O)O)cc1)C(=O)O; Bip = N[C@@H](Cc1ccc(-c2ccccc2)cc1)C(=O)O; Ala(4-THP) = N[C@@H](CC1CCOCC1)C(=O)O; Hyp = O=C(O)[C@@H]1C[C@@H](O)CN1; βAla = NCCC(=O)O

In assay [1] the target is T1, BMP4 (Homo sapiens, UniProt P12644).
T1 sequence (P12644 293-408): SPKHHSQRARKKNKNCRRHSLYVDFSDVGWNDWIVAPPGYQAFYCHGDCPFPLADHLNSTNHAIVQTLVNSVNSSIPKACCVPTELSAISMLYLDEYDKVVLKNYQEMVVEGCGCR
Put plainly: Intermolecular interaction by surface plasmon resonance (SPR), immobilized BMP4. The class given is binding. The following applies: which BMP is not specified. The method, then: The test of the intermolecular interaction by the surface plasmon resonance (SPR) of each of the peptides synthesized in Examples 2 and 3 against BMP4/BMP7 was performed by the following manner. The test method is specifically shown as follows.
A CM5 sensor chip (Cytiva) was inserted into a BiacoreT200 (Cytiva). Three priming runs were performed using running buffer: HBS-EP+ (Cytiva). The system was then equilibrated at a flow rate of 30 μL/min. Subsequently, 50 μL of 60 mM EDC solution (Cytiva) and 50 μL of 650 mM NHS solution (Cytiva) were mixed and were allowed to react at a flow rate of 10 μL/min for 420 seconds. The resultant was diluted with a 10 mM acetic acid solution (pH 5.0), to prepare 150 μL of 0.2 μM BMP4/BMP7 solution. The solution was allowed to react at a flow rate of 10 μL/min for 420 seconds, and the BMP4/BMP7 was immobilized in a CM5 sensor chip. After immobilization, capping was performed by reacting with 1.0 M ethanolamine aqueous solution (Cytiva) at a flow rate of 10 μL/min for 420 seconds. […]
(§1) The kinetics evaluation model was Single Cycle Kinetics, and curve fitting was performed using Biacore T200 Evaluation Software Version 3.0 (Cytiva). The binding of peptides to BMP4/BMP7 was evaluated by performing least-squares curve fitting on the obtained sensorgram to calculate the KD value.

For assay [2], the target named is T2, BMP4 (UniProt P12644 293-408).
T2 sequence (looked up): T1 sequence (P12644 293-408)
Nature of the assay: cell-based or functional assay.

The target in assay [3] is T3, BMP7 (UniProt P18075 293-431).
T3 sequence (looked up): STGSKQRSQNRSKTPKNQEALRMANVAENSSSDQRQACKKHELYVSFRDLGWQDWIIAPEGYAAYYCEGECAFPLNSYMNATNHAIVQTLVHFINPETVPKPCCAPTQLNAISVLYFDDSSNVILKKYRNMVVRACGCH
Put plainly: cell-based or functional assay.

The target in assay [4] is T2, BMP4. Put plainly: cell-based or functional assay. This is another data set of the same source.
The target of assay [5] is T3, BMP7. Nature of the assay: cell-based or functional assay. The source holds these as a separate data set.
Assay [6] deals with T2, BMP4. Nature of the assay: cell-based or functional assay. This is another data set of the same source.
Assay [7] addresses T3, BMP7. Put plainly: cell-based or functional assay. The source holds these as a separate data set.
Another assay deals with BMP2 (UniProt P12643 283-396). Nature of the assay: cell-based or functional assay.
Chain of BMP2 (P12643 283-396 limits assumed): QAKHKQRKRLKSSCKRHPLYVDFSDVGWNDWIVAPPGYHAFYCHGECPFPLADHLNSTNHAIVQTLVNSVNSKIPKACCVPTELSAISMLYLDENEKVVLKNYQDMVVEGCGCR
Assay [8] deals with T2, BMP4. Nature of the assay: SPR (Biacore T200), BMP4 amine-coupled on CM5 chip, peptide as analyte, single cycle kinetics. The method, then: (§2) A CM5 sensor chip (Cytiva) was inserted into a BiacoreT200 (Cytiva). Three priming runs were performed using running buffer: HBS-EP+ (Cytiva). The system was then equilibrated at a flow rate of 30 μL/min. Subsequently, 50 μL of 60 mM EDC solution (Cytiva) and 50 μL of 650 mM NHS solution (Cytiva) were mixed and were allowed to react at a flow rate of 10 μL/min for 420 seconds. The resultant was diluted with a 10 mM acetic acid solution (pH 5.0), to prepare 150 μL of 0.2 μM BMP4/BMP7 solution. The solution was allowed to react at a flow rate of 10 μL/min for 420 seconds, and the BMP4/BMP7 was immobilized in a CM5 sensor chip. After immobilization, capping was performed by reacting with 1.0 M ethanolamine aqueous solution (Cytiva) at a flow rate of 10 μL/min for 420 seconds. A liquid prepared by dissolving each peptide at 10 mM in a DMSO solution was diluted with a running buffer so that the final concentration of the peptide-dissolved liquid would be 10 μM. Then, the peptide solutions (100 nM, 50 nM, 25 nM, 10 nM, and 5 nM) were prepared. […]
as §1
(SPR reads the build-up and loss of mass on a sensor chip optically.)

The target in assay [9] is T3, BMP7. Put plainly: SPR (Biacore T200), BMP7 amine-coupled on CM5 chip, peptide as analyte, single cycle kinetics. The method, then: as §2, §1
For assay [10], the target named is T2, BMP4. Nature of the assay: cell-based or functional assay. This is another data set of the same source.
The target of assay [11] is T3, BMP7. Nature of the assay: cell-based or functional assay. The source holds these as a separate data set.
The target of assay [12] is T3, BMP7. Put plainly: cell-based or functional assay. This is another data set of the same source.
The target in another assay is T4, BMP5 (UniProt P22003 317-454, limits assumed).
T4 sequence (looked up): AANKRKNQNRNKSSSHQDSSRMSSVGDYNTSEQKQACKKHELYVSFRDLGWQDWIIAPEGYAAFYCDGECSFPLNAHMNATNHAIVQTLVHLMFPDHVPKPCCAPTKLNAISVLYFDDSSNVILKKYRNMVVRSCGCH
Nature of the assay: cell-based or functional assay.

The next assay deals with T5, BMP6 (UniProt P22004 382-513, limits assumed).
T5 sequence (looked up): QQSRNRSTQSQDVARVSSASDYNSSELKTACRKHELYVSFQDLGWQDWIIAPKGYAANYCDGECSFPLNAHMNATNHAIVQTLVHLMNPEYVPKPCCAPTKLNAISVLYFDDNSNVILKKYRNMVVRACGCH
Nature of the assay: cell-based or functional assay.

In the case of “E-R-V-F4COO-Atp-D-R-Bph-P-Y-P-Bph-Y-F4COO-F4COO-S-C (ERV[Phe(4-COOH)][Ala(4-THP)]DR[Bip]PYP[Bip]Y[Phe(4-COOH)][Phe(4-COOH)]SC) [SEQ ID NO: 1]”, the “BMP binding activity (in words)” value in the assay with BMP4 [1] is “confirmed to have BMP binding activity”.

For the molecule “recombinant Human Noggin Protein (R&D) (from UniProt Q13253 28-232)”, the IC50 (nM), SMAD1 phosphorylation in A549 cells with BMP4 [2] turned out to be 0.08 nM; with BMP7 [3], 2.7 nM; with BMP4 [4], 0.13 nM; in the assay with BMP7 [5], 5.74 nM.

B1: BMP4 signal transduction inhibition peptide SEQ ID NO: 277 (Example 8) (peptide)
peptide: {CH2CO}-ERV[Phe(4-COOH)]V[KCOpipzaa]R[3Pal(6-Ph)][KCOpipzaa]Y[Hyp][Bip]Y[Phe(4-COOH)][Phe(4-COOH)]SCG-NH2
modifications: thioether N-17 (inferred)
For the molecule B1, the “IC50 (nM), SMAD1 phosphorylation in A549 cells” value in the assay with BMP4 [6] was determined as 0.073 nM; with BMP7 [7], 455 nM. Moreover, in the assay with BMP2, the “IC50, SMAD1 phosphorylation, BMP2 0.3 nM” value is 0.45 nM.

B2: BMP4 signal transduction inhibition peptide No. 84 (SEQ ID NO: 84) (peptide)
peptide: {CH2CO}-ERVYVDR[Bip]PYV[Bip]Y[Phe(4-COOH)][Phe(4-COOH)]SC[βAla][dE]-OH
modifications: thioether N-17
SMILES: CC(C)[C@@H]1NC(=O)[C@H](Cc2ccc(O)cc2)NC(=O)[C@H](C(C)C)NC(=O)[C@H](CCCNC(=N)N)NC(=O)[C@H](CCC(=O)O)NC(=O)CSC[C@@H](C(=O)NCCC(=O)N[C@H](CCC(=O)O)C(=O)O)NC(=O)[C@H](CO)NC(=O)[C@H](Cc2ccc(C(=O)O)cc2)NC(=O)[C@H](Cc2ccc(C(=O)O)cc2)NC(=O)[C@H](Cc2ccc(O)cc2)NC(=O)[C@H](Cc2ccc(-c3ccccc3)cc2)NC(=O)[C@H](C(C)C)NC(=O)[C@H](Cc2ccc(O)cc2)NC(=O)[C@@H]2CCCN2C(=O)[C@H](Cc2ccc(-c3ccccc3)cc2)NC(=O)[C@H](CCCNC(=N)N)NC(=O)[C@H](CC(=O)O)NC1=O
notes: thioether ring between N-terminal chloroacetyl and Cys17
As for B2, the Kd came to 2.1 nM with BMP4 [8] and 21.7 nM in the assay with BMP7 [9].

B3: BMP4 signal transduction inhibition peptide No. 177 (SEQ ID NO: 177) (peptide)
peptide: {CH2CO}-ERV[Phe(4-COOH)][Ala(4-THP)]DR[Bip]PYP[Bip]Y[Phe(4-COOH)][Phe(4-COOH)]SC[βAla][dE]-OH
modifications: thioether N-17
SMILES: CC(C)[C@@H]1NC(=O)[C@H](CCCNC(=N)N)NC(=O)[C@H](CCC(=O)O)NC(=O)CSC[C@@H](C(=O)NCCC(=O)N[C@H](CCC(=O)O)C(=O)O)NC(=O)[C@H](CO)NC(=O)[C@H](Cc2ccc(C(=O)O)cc2)NC(=O)[C@H](Cc2ccc(C(=O)O)cc2)NC(=O)[C@H](Cc2ccc(O)cc2)NC(=O)[C@H](Cc2ccc(-c3ccccc3)cc2)NC(=O)[C@@H]2CCCN2C(=O)[C@H](Cc2ccc(O)cc2)NC(=O)[C@@H]2CCCN2C(=O)[C@H](Cc2ccc(-c3ccccc3)cc2)NC(=O)[C@H](CCCNC(=N)N)NC(=O)[C@H](CC(=O)O)NC(=O)[C@H](CC2CCOCC2)NC(=O)[C@H](Cc2ccc(C(=O)O)cc2)NC1=O
notes: as for B2
As for B3, the “IC50 (nM), SMAD1 phosphorylation in A549 cells” value in the assay with BMP4 [10] was 0.053 nM; with BMP7 [11] it was 1.4 nM. Also, the “IC50, SMAD1 phosphorylation, BMP7 10 nM” value in the assay with BMP7 [12] turned out to be 1.43 nM. The “IC50, SMAD1 phosphorylation, BMP2 0.3 nM” value with BMP2 came to 0.21 nM. For the same molecule, in the assay with BMP5, the “IC50, SMAD1 phosphorylation, BMP5 2 nM” value turned out to be 9.17 nM. Also, the “IC50, SMAD1 phosphorylation, BMP6 3 nM” value with BMP6 was 3.9 nM. Further, the Kd in the assay with BMP4 [8] was determined as 0.4 nM; in the assay with BMP7 [9], 2.3 nM.
